We go through 1 substance from PMC12851578.

pKd: −log10 of the molar value. Values joined by “and” are separate entries in the source; they are usually repeats but may differ in a detail not shown here. Equal values may be shown once.

In the experiment the target is actin purified from muscle (F-actin) (Bos taurus (ground beef)) (UniProt P68138). As to the kind of experiment: co-sedimentation.

A word on the pKd: it is the negative decadic logarithm of the Kd, by convention in mol/L. A lower pKd goes with a large Kd. Regarding “Lfat1 ABD [change], recombinant (from UniProt Q5ZVQ3 138-355) (domain or fragment)”, the pKd was 4.72 and 4.79 and 4.20.
